The text below walks through data of patent US20100047893A1 (RESEARCH FOUNDATION OF STATE UNIVERSITY OF NEW YORK, published 2010).

This series concerns the molecule itself. As to the kind of experiment: nondenaturing 4-20% PAGE and western blot of 1 ug recombinant TbPRMT7-His. For orientation: In western blotting, separated proteins are transferred to a membrane and probed.

B1: recombinant TbPRMT7-His (enzyme)
chain: MPPKQHRHQKKDKNDNALQNTIGFVPPGATLASVSGYRPPDAFVNRIDRNIPVPARLRHTPVSLIEAVNDFHYAMMNDEERNNFYYEVLKKHVTPETGVLEIGAGSGLLSLMAAKLGAKWVVAVEGSEELAKLARENIRANNMEHQVKVLHMMSTELKSKHLPEPPDVLLSEIFGTMMLGESALDYVVDVRNRLLKPTTKIIPQFGTQYAVPIECDALHRISSVSGWRDLDLKHMMTLQDTVSIVFAKHYGIRMNSVNFRRLSDPIELFRVDFSSSNRNDIPRRKHFDVVAKESGTAHAMLFYWKVTDDEFVMSTDPEDTVNNFPRDMQWGQALQLLDASNGPLPTPVVFTEGKNYNFECNFSGDRVILHMQLCPESGNGEMTECEGKTT
notes: also called T. brucei PRMT7; Tb927.7.5490; not shown: His tag
Regarding B1, the binding result is recorded as “binds”.
